The record followed here is patent publication US9388450B2, “FRET based multiplex probes” (University of North Texas Health Science Center at Fort …, priority 2013, dated 2016).

Format in all cases: biochemical
In experiment [1] the target is T1, MMP-2 (Homo sapiens, UniProt P08253).
T1 sequence (P08253 110-660): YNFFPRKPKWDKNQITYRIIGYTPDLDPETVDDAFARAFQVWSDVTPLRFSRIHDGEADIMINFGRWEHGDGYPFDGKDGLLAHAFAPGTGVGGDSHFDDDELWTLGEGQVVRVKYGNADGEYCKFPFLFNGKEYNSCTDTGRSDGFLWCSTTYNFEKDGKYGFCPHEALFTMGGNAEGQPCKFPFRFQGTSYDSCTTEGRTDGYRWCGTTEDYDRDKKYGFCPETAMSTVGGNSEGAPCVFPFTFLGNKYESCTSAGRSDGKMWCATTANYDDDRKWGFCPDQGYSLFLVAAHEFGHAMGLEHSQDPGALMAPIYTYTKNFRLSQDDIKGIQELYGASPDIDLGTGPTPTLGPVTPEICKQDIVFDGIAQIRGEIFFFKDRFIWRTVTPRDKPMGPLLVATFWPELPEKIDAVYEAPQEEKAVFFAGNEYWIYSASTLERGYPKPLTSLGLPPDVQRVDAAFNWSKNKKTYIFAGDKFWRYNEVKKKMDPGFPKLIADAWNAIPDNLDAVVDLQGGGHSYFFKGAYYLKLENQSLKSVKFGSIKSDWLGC
As to the kind of experiment: specificity of peptide: digestion by MMP-2. The conditions noted are these: peptide as substrate. From the text: (§1) They have also shown that the peptide is very specific and is not digested by MMP-2 enzyme MMP-3 or MMP-7 enzymes. FRET sensitized fluorescence detection proves to be very effective detection approach. Similar specific peptide sequences have been developed for MMP-2, MMP-7 and more. To make highly confident assessment of various proteases activities directly in cells and tissue it is necessary to have single molecular probe capable for simultaneous analysis/detection of more than one protease. The present invention includes methods for developing and constructing a new probe that will be capable of simultaneous detection of activities of two proteases (like MMP-2 and MMP-9) at the same time and the same place by the same molecule (molecular construct). […] The probe is constructed in a way to force two sequential steps of energy transfer process. First step (FRET 1), is mediated through the cleavable linker specific to enzyme 1 (for example MMP-9) and occurs between the first energy donor and first acceptor (acceptor is a central body). Second step (FRET 2), is between the first acceptor that becomes donor to the second acceptor. The second donor and second acceptor are separated by linker specific to enzyme 2 (for example MMP-2). A highly efficient well-defined sequential FRET process offers distinctive signatures for recognizing two proteins activities. […]

For experiment [2], the target named is T2, MMP-7 (Homo sapiens, UniProt P09237).
T2 sequence (P09237 95-267): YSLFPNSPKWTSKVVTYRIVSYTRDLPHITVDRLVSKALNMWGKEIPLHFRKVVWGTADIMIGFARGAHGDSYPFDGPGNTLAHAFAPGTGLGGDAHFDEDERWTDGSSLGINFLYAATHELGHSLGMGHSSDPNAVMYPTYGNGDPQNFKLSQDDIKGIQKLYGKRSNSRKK
Put plainly: specificity of peptide: digestion by MMP-7. The conditions noted are these: peptide as substrate.
Description: as §1

For experiment [3], the target named is MMP-3 (Homo sapiens, UniProt P08254). As to the kind of experiment: specificity of peptide: digestion by MMP-3. The conditions noted are these: peptide as substrate.
Description: as §1

Experiment [4] concerns the target MMP-9 (Homo sapiens, UniProt P14780). Put plainly: FRET-based detection of peptide cleavage by MMP-9. From the text:
Matrix metalloproteinases (MMPs) are involved in major human diseases such as cancer, AIDS, and inflammation. Therefore, sensitive detection and imaging of MMPs activities offer great clinical value to cancer detection, treatment, and therapy monitoring. Among many successful approaches that utilize peptide chemistry Förster resonance energy transfer (FRET) offers high potential for development of in-vitro and in-vivo proteases assays. Recently we developed and tested a specific peptide sequence that is a substrate for MMP-9 (Lys-Gly-Pro-Arg-Ser-Leu-Ser-Gly-Lys) (SEQ ID NO.: 3) (FIG. 4), which is cleaved into Lys-Gly-Pro-Arg-Ser (SEQ ID NO.: 4) and Leu-Ser-Gly-Lys (SEQ ID NO.: 5). Other non-limiting sequence targets can include, e.g., peptide substrates for a consensus for MMP-2 (Lys-Gly-Ser-Gly-Pro-Tyr-Val-Ile-Trp-Leu-Gly-Lys) (SEQ ID NO.: 6) (SEQ ID NO.: 7). In this approach, one end of the specific peptide was labeled with a donor and the other with an acceptor chromophore. A selective cleavage of this specific peptide sequence by MMP-9 protease results in the separation of the two segments of oligopeptide carrying the donor and acceptor and consequently leads to significant increase of donor signal and decrease in acceptor signal. A ratiometric approach allows excellent dynamic range for detection that produces an almost 60 fold change when going from intact to completely cleaved peptide.
They have also shown that the peptide is very specific and is not digested by MMP-2 enzyme MMP-3 or MMP-7 enzymes. FRET sensitized fluorescence detection proves to be very effective detection approach. Similar specific peptide sequences have been developed for MMP-2, MMP-7 and more. To make highly confident assessment of various proteases activities directly in cells and tissue it is necessary to have single molecular probe capable for simultaneous analysis/detection of more than one protease. […]

Ends that are not written are not given here.

Chain of MMP-9 (P14780 94-707): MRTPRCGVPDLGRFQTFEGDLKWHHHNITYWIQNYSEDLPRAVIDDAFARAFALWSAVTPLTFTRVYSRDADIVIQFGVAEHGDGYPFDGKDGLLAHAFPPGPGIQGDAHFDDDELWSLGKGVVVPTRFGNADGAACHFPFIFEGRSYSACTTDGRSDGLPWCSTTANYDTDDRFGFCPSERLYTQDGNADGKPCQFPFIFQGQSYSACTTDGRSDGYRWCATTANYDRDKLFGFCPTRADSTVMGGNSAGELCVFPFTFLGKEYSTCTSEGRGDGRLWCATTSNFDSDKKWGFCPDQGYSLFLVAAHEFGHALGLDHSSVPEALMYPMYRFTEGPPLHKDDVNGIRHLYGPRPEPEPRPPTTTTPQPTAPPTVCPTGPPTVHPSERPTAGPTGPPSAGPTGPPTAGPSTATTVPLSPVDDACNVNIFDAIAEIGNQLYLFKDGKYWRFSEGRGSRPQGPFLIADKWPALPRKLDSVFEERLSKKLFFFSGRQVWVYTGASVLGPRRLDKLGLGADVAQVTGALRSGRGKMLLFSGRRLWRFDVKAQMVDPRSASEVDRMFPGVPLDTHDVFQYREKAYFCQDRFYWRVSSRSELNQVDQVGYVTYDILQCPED
Chain of MMP-3 (P08254 100-477): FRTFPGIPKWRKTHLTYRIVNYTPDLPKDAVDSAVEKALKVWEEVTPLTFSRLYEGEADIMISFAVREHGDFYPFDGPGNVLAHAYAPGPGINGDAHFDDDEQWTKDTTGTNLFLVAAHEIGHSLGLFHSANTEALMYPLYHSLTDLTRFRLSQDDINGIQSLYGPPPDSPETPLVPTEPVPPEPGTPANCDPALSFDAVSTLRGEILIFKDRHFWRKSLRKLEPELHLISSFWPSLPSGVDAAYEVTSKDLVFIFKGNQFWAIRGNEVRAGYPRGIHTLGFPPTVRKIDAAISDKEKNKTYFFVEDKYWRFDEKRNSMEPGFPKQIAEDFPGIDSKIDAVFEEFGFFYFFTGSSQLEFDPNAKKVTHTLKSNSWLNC

Turning to “Lys-Gly-Pro-Arg-Ser-Leu-Ser-Gly-Lys (KGPRSLSGK; also: donor and acceptor labels) [labeled with donor on one end and acceptor on the other]”, the “digestion of the peptide by MMP-2 enzyme” value in experiment [1] is given as “not digested”. In addition, the “digestion of the peptide by MMP-7 enzyme” value in experiment [2] is recorded as “not digested”. Further, in experiment [3], the “digestion of the peptide by MMP-3 enzyme” value is given as “not digested”. The “cleavage of the peptide by MMP-9” value in experiment [4] (peptide as substrate) was “very effectively cleaves”. The same substance came in with an FRET when intact in experiment [4] (peptide labeled with donor and acceptor, intact, before addition of MMP-9) of over 90%. The “ratiometric change (donor/acceptor signal) going from intact to completely cleaved peptide” value in experiment [4] (peptide labeled with donor on one end and acceptor on the other, cleaved by MMP-9) is given as about 60 fold.
